The text below walks through data of US20020004485A1 (University of California, published 2002).

In test [1] the target is atypical MC receptor of Cos-7 cells. As to the kind of experiment: cell-based or functional assay.
For test [2], the target named is MC receptor endogenous to Xenopus laevis melanophores (Xenopus laevis). As to the kind of experiment: cell-based or functional assay.

Take SYSMEHFRWGKPV (ligand, UniProt P01189 138-150, looked up) [α-melanocyte stimulating hormone]: the “EC50 of α-MSH for cAMP production in Cos-7 cells” value in test [1] is roughly 80 nM. Besides, the “EC50 of α-MSH alone in frog melanophores” value in test [2] worked out at 0.03 nM.
